# Measured values published in patent US9347942B2, “Ultrasensitive cell based sensors and uses thereof” (CANVAX BIOTECH SL, priority 2010, dated 2016).
# Experiments:
# Assay type in all cases: cell-based
# SSTR2 = target: T1, SSTR2 (Homo sapiens, UniProt P30874); assay: Agonist-induced exocytosis of granzyme B, sandwich ELISA (Example 9); settings: agonist 10 uM, 60 minutes
# T1 construct: the entire human GPCR; mouse immunoglobulin kappa signal peptide (N); expressed in transfected cells
# Description: (§1) Human granzyme B was selected as reporter, chimeric promoter of hCMV-MoLV5′LTR as promoter for reporter expression, RBL-2H3 as hemopoyetic cells with professional regulated exocytosis and several GPCRs as exocytosis modulators under the control of Moloney Leukaemia virus 5′-LTR (MoMLV5′LTR, SEQ ID NO:3) as promoter for expression of exocytosis modulators. […] Vectors for expression of granzyme B had the chimeric promoter of hCMV-MoLV5′LTR-GranzymeB-IRES-NGFR with hygromycin resistance for stable transfections. Vectors for GPCR were electroporated first, cells were selected with neomycin at 500 ug/mL for about two weeks and cells were analysed by flow cytometry (Guava Technologies, USA) with anti-cmyc tag antibody (anti-cmyc-FITC, clone 9E10, Sigma-Aldrich, USA) for surface expression. Positive cells were separated by magnetic separation using anti-cmyc monoclonal antibody conjugated to biotin (Miltenyi Biotec, Germany) and streptavidin-MACS (Miltenyi Biotec, Germany). After growing positive fraction of cells was again analysed by flow cytometry with the anti-cmyc tag antibody. Positive cells were individually electroporated with the vector for expression human granzyme B using a microporator (Digital Bio Technology, South Korea) and after 48 hours hygromycin at 1500 ug/mL and neomycin at 500 ug/mL were added to culture for selection. After selection for about 2 weeks cells were analysed by flow cytometry (Guava Technologies, USA) with an antibody against NGFR coupled to FITC. Positive population where magnetically separated by MACS using anti-NGFR-MACS sup.R (Miltenyi Biotec, Germany). Sorted populations were again analysed again by flow cytometry to check both the expression of the GPCR with the anti-cmyc tag antibody and with anti-NGFR antibody to check granzyme B expression. […] GPCRs included were: SSTR2 and CHRM2 as alpha-i coupled GPCRs; AGTR1 and bradykinin type B1 receptor (BDKRB1) as alpha-q coupled GPCRs and AVPR2 as alpha-s coupled GPCR. […] Cells were seeded the night before experiment at 100.000 cells per well of a 96-well microplate in 100 uL of complete cell culture medium. Next day cells were washed with HBSS buffer and incubated with the ligand (agonist) at 10 uM of each GPCR in 30 uL of HBSS buffer at 37 Celsius degrees for 60 minutes and after centrifugation at 400 g for 5 minutes supernatants were analysed for human granzyme B protein by a sandwich ELISA specific for human granzyme B (Ucytech, Netherlands).
# hIL8 receptor (hIL8RA) = target: T2, hIL8 receptor (hIL8RA) (Homo sapiens, UniProt P25024); assay: Multiplex assay, Sensor A channel (hIL8RA and human granzyme A) (Example 14); settings: for Signal to background at 30 min: granzyme A substrate 1 uM
# T2 construct: the entire human GPCR; mouse immunoglobulin kappa signal peptide (N); expressed in transfected cells
# T2 sequence (P25024 3-350 limits assumed): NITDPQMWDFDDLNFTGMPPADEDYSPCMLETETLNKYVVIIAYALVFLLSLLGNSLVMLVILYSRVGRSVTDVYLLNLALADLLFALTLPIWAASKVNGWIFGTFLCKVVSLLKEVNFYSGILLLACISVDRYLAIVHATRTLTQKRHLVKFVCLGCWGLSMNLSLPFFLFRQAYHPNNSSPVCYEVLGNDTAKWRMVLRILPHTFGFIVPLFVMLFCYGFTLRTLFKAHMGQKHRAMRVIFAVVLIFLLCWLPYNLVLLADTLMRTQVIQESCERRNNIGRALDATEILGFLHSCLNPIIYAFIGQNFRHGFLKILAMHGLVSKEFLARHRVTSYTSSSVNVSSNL
# Description: (§2) The principle of multiplex reactions is illustrated in FIG. 5. RBL2H3 cells were stably transfected with a pair of a GPCR as exocytosis modulator and a granzyme as a granule stored reporter as described in example 9. Combinations included were: hIL8 receptor (hIL8RA) and human granzyme A (Sensor A) and CHRM2 and granzyme B expressing cells of example #12 (Sensor B). Human IL8 was used as agonist of hll_8R while carbachol was used as CHRM2 agonist. […] As both substrates uses the same pair of fluorophore (FAM) and quencher (TAMRA) only one substrate could be added to reaction vessel for specific detection at 535 nm after excitation at 485 nm. […] Sensors, agonists and substrates were mixed in a total volume of 20 uL of HBSS in a black walled 384 well microplate and the microplate was incubated at 37 Celsius degrees in a BMG-Labtech microplate fluorimeter and read at 0, 15, 30, 45 and 60 minutes.
# CHRM2 = target: T3, CHRM2 (Homo sapiens, UniProt P08172); assay: Multiplex assay, Sensor B channel (CHRM2 and granzyme B) (Example 14); settings: Condition 9: Sensor A 12500 + Sensor B 5000 cells, IL8 10 uM, no carbachol, granzyme B substrate 1 uM
# T3 construct: the entire human GPCR; mouse immunoglobulin kappa signal peptide (N); expressed in transfected cells
# T3 sequence (P08172 2-466): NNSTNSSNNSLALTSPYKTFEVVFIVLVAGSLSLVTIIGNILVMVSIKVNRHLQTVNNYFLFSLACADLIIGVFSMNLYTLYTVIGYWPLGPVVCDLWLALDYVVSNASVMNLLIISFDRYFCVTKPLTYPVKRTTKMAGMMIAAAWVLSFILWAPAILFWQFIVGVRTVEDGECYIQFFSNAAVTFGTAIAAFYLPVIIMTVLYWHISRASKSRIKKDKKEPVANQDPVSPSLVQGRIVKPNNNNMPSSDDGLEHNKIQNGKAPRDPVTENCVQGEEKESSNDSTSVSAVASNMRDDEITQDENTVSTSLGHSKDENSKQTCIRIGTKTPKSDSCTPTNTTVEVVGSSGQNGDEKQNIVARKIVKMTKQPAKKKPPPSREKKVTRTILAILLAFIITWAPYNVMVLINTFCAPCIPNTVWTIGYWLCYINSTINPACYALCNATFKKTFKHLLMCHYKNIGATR
# Description: as §2
# AGTR1 = target: T4, AGTR1 (Homo sapiens, UniProt P30556); assay: Agonist-induced exocytosis of granzyme B, sandwich ELISA (Example 9); settings: agonist 10 uM, 60 minutes
# T4 construct: the entire human GPCR; mouse immunoglobulin kappa signal peptide (N); expressed in transfected cells
# T4 sequence (P30556 2-359): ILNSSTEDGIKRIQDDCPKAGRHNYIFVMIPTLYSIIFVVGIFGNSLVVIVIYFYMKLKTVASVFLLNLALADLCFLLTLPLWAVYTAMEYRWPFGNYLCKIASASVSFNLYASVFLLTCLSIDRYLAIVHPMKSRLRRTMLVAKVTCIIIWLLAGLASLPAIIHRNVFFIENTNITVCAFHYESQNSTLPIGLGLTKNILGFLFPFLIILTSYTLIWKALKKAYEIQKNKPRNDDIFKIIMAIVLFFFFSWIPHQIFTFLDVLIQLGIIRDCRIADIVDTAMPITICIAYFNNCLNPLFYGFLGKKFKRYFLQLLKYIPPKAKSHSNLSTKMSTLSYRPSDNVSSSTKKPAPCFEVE
# Description: as §1
# [1] = target: T5, bradykinin type B1 receptor (BDKRB1) (Homo sapiens, UniProt P46663); assay: as above; settings: agonist 10 uM, 60 minutes
# T5 construct: the entire human GPCR; mouse immunoglobulin kappa signal peptide (N); expressed in transfected cells
# T5 sequence (P46663 5-353 limits assumed): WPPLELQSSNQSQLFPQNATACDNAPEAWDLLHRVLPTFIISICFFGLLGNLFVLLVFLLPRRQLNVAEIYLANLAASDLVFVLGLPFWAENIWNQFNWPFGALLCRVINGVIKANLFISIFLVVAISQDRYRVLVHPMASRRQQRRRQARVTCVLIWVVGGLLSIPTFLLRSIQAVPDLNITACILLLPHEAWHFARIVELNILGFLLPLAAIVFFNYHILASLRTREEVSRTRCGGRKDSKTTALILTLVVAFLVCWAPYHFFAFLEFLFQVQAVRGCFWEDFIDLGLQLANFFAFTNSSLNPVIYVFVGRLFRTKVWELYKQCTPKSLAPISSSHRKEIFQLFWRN
# Description: as §1
# [2] = target: T6, bradykinin type B1 receptor (Homo sapiens, UniProt P46663); assay: Exocytosis time optimisation, granzyme B FRET readout (Example 12); settings: agonist 10 uM
# T6 construct: the entire human GPCR; mouse immunoglobulin kappa signal peptide (N); expressed in transfected cells
# T6 sequence (P46663 5-353 limits assumed): T5 sequence (P46663 5-353 limits assumed)
# Description: An experiment was designed to optimize assay conditions such as: exocytosis time, number of steps needed for assay and uses of cells in suspension. Cells developed in example #9 expressing both a GPCR and human granzyme B were used in this example for optimization of exocytosis time. GPCRs included were CHRM2 (an alpha-i coupled GPCR) and bradykinin type B1 receptor (an alpha-q coupled GPCR). Carbachol and kallinin from Sigma-Aldrich (USA) were used as ligands for CHRM2 and bradykinin type B1 receptor, respectively and used at 10 uM final concentration in HBSS buffer. Cells were seeded the night before experiment at 20.000 cells per well of a 96-well microplate in 100 uL of complete cell culture medium. Next day cells were washed with HBSS buffer and incubated with the ligand (agonist) at 10 uM of each GPCR in 30 uL of HBSS buffer at 37 Celsius degrees for 5, 15, 30 or 60 minutes and after centrifugation at 400 g for 5 minutes supernatants were analysed for human granzyme B activity using FAM-[…]-TAMRA at 1 uM final concentration as the human granzyme B substrate. Released FAM was measured by excitation at 485 nm and emission at 535 nm in a BMG Labtech microplate fluorimeter in 96 well microplates. Microplates were incubated at 37 Celsius degrees on the reader and were kinetically read at 0, 15, 30, 45 and 60 minutes. Control wells with substrate only in HBSS buffer were included to subtract autofluorescence of substrates to both cells treated with ligands and to cells treated with HBSS buffer only. […] The signal to background is lower at longer exocytosis times due to the higher increase in basal release than the increase in specific signal after the first 5 to 15 minutes. Thus, any exocytosis time from probably less than 5 minutes to at least 60 minutes may be used for the methods of the present invention but longer exocytosis times produce a sensor with a lower signal to background, exocytosis is nearly complete at 5 minutes and signal to background is good for a robust sensor.
# [3] = 100.000 cells, dilution 2250, after subtraction of 0.2 blank
# T1 sequence (P30874 2-369): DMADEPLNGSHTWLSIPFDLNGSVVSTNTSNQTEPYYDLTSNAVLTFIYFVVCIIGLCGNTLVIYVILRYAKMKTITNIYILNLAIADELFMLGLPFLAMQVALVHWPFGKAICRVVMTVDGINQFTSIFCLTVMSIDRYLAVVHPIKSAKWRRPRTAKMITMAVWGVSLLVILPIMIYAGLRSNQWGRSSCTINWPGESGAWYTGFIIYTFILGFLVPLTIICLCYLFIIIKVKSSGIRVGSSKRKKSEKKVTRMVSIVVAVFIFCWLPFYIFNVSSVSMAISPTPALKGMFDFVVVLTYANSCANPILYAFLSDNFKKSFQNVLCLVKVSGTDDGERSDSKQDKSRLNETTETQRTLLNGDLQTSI
compound,measurement,setting,value
"CC(C)[C@@H]1NC(=O)[C@H](CCCCN)NC(=O)[C@@H](Cc2c[nH]c3ccccc23)NC(=O)[C@H](Cc2ccc(O)cc2)NC(=O)[C@H](C)N(C)C(=O)[C@H](Cc2ccccc2)NC1=O [Seglitide, seglitide]",Absorbance at maximal dilution of ELISA tested,SSTR2; [3],2.4
same,Sensitivity (minimal amount of cells needed),SSTR2; granzyme B ELISA,<150 cells
IL8: Human IL8 used as agonist of hIL8R,Signal to background at 30 min,"hIL8 receptor (hIL8RA); Condition 2: 12500 cells Sensor A, IL8 10 uM",16
same,Signal to background at 30 min,"hIL8 receptor (hIL8RA); Condition 5: Sensor A 12500 + Sensor B 5000 cells, IL8 10 uM + carbachol 10 uM",12.5
same,"maximal granzyme A activity secreted by sensor A upon IL8, relative to granzyme B activity secreted by sensor B upon carbachol","hIL8 receptor (hIL8RA); first experiment, data not shown",about 40%
same,Signal to background at 30 min,CHRM2,0.95
angiotensin,Absorbance at maximal dilution of ELISA tested,AGTR1; [3],1.8
same,Sensitivity (minimal amount of cells needed),AGTR1; granzyme B ELISA,<150 cells
kallinin,Absorbance at maximal dilution of ELISA tested,[1]; [3],0.8
same,Sensitivity (minimal amount of cells needed),[1]; granzyme B ELISA,<150 cells
same,"exocytosis, % of maximal","[2]; 5 minutes, 20.000 cells",> 90%
same,signal to background (S/B),[2]; medium taken at 5 to 15 minutes,20-22
same,signal to background (S/B),[2]; medium taken at 30 minutes,15-17
same,signal to background (S/B),[2]; medium taken at 60 minutes,8-10
